Assays:
Test in all cases: malachite green phosphate release assay
Assay type in all cases: biochemical, Arabidopsis thaliana
Settings in all cases: MOPS-KOH pH 7.5, 100 mM KCl, 10 mM MgCl2, 25 °C
[1] = substrate: O=C(COP(=O)(O)O)[C@@H](O)[C@H](O)COP(=O)(O)O
Source text: (§1) malachite green phosphate release assay on MBP-AtCbbYA

[2] = substrate: O=C(COP(=O)(O)O)[C@H](O)[C@H](O)COP(=O)(O)O
Source text: as §1

[3] = substrate: O=C(COP(=O)(O)O)[C@@H](O)[C@H](O)COP(=O)(O)O; remark: listed apart in the source
Source text: (§2) malachite green phosphate release assay on MBP-AtCbbYB

[4] = substrate: O=C(COP(=O)(O)O)[C@H](O)[C@H](O)COP(=O)(O)O; remark: listed apart in the source
Source text: as §2

B1: MBP-AtCbbYA (Arabidopsis thaliana) (protein)
chain: CSASSSLTTLPSALLFDCDGVLVDTEKDGHRISFNDTFKERDLNVTWDVDLYGELLKIGGGKERMTAYFNKVGWPEKAPKDEAERKEFIAGLHKQKTELFMVLIEKKLLPLRPGVAKLVDQALTNGVKVAVCSTSNEKAVSAIVSCLLGPERAEKIKIFAGDVVPKKKPDPAIYNLAAETLGVDPSKCVVVEDSAIGLAAAKAAGMTCIVTKSGYTADEDFENADAVFDCIGDPPEERFDLAFCGSLLRKQFVS
Km [1]: 40 ± 1 µM
kcat [1]: 2.13 ± 0.04 s⁻¹
kcat/Km [1]: 53000 ± 2000 M⁻¹ s⁻¹
Km [2]: 4310 ± 110 µM
kcat [2]: 0.043 ± 0.009 s⁻¹
kcat/Km [2]: 10 ± 2 M⁻¹ s⁻¹

B2: MBP-AtCbbYB (Arabidopsis thaliana) (protein)
chain: SKSRVSSPVSALPLRSLEALIFDCDGVILESENLHRQAYNDAFSHFDVRCPPSSSESLDWSLEFYDKFQNLVGGGKPKMRWYFKENGWPTSTIFDSPPQNDDDRAKLIDTLQDWKTERYKEIIKSGSVEPRPGVIRLMDEAKAAGKKLAVCSAATKSSVILCLENLIDIERFQGLDCFLAGDDVKEKKPDPSIYITAAEKLGVSVKDCLVVEDSVIGLQAATKAGMSCVITYTSSTSDQNFNDAIAVYPDLSNVKLKDLETLLQTIVTAA
Km [3]: 182 ± 30 µM
kcat [3]: 0.54 ± 0.05 s⁻¹
kcat/Km [3]: 3000 M⁻¹ s⁻¹
Km [4]: 4840 ± 360 µM
kcat [4]: 0.015 ± 0.002 s⁻¹
kcat/Km [4]: 3.2 ± 0.4 M⁻¹ s⁻¹
